This assay deals with T1, GST-p53, purified, bacterially produced (UniProt P04637 1-393).
T1 construct: p53 tumor suppressor protein; also called p53-pGEX; purified p53; source: bacteria, from a pGEX construct, purified
Kind of assay: pull-down; purified GST-p53 (or GST-c-Jun) incubated with purified His-IκBα in IP buffer (25 mM Hepes pH 7.5, 75 mM KCl, 2.5 mM MgCl2, 0.1 mM EDTA, 0.15% NP-40, 1 mM DTT); glutathione Sepharose beads; autoradiography of 32P-IκBα or Western blot for IκBα. Conditions: both partners purified. In general terms: A western blot detects proteins with antibodies after separation by electrophoresis.

T1 sequence (P04637 whole entry): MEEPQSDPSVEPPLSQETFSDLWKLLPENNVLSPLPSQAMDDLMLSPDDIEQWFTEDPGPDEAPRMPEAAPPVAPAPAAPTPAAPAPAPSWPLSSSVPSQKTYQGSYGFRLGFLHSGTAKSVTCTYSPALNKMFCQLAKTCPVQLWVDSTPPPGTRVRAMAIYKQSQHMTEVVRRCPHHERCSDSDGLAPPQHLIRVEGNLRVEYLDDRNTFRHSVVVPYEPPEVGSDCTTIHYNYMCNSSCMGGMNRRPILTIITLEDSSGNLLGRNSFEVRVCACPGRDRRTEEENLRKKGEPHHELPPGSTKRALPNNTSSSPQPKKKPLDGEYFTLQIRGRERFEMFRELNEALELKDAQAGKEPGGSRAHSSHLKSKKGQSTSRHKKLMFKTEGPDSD

B1: [32P]-labeled 6xHis-tagged IκBα (His-IκBα), phosphorylated in vitro by p90rsk (natural protein, UniProt P25963 1-317, looked up)
chain: MFQAAERPQEWAMEGPRDGLKKERLLDDRHDSGLDSMKDEEYEQMVKELQEIRLEPQEVPRGSEPWKQQLTEDGDSFLHLAIIHEEKALTMEVIRQVKGDLAFLNFQNNLQQTPLHLAVITNQPEIAEALLGAGCDPELRDFRGNTPLHLACEQGCLASVGVLTQSCTTPHLHSILKATNYNGHTCLHLASIHGYLGIVELLVSLGADVNAQEPCNGRTALHLAVDLQNPDLVSLLLKCGADVNRVTYQGYSPYQLTWGRPSTRIQQQLGQLTLENLQMLPESEDEESYDTESEFTEFTEDELPYDDCVFGGQRLTL
modifications: 32P-phosphate put on in vitro by p90rsk; site not stated
notes: IκBα, wild type; also called [^32P]-labeled IκBα; purified bacterially-produced wild-type IκBα; source: bacterially produced, purified; labeled in vitro with [γ-32P]ATP and Xenopus laevis p90rsk
As for B1, the binding result was “binds”.

B2: 6xHis-tagged IκBα (His-IκBα), purified, bacterially produced (natural protein, UniProt P25963 1-317, looked up)
chain: MFQAAERPQEWAMEGPRDGLKKERLLDDRHDSGLDSMKDEEYEQMVKELQEIRLEPQEVPRGSEPWKQQLTEDGDSFLHLAIIHEEKALTMEVIRQVKGDLAFLNFQNNLQQTPLHLAVITNQPEIAEALLGAGCDPELRDFRGNTPLHLACEQGCLASVGVLTQSCTTPHLHSILKATNYNGHTCLHLASIHGYLGIVELLVSLGADVNAQEPCNGRTALHLAVDLQNPDLVSLLLKCGADVNRVTYQGYSPYQLTWGRPSTRIQQQLGQLTLENLQMLPESEDEESYDTESEFTEFTEDELPYDDCVFGGQRLTL
notes: IκBα, wild type; also called purified IκBα protein; hexahistidine-tagged IκBα; source: bacterially produced, purified
As for B2, the binding result is “binds”.

Values taken from publication PMC1184076, “Modulation of p53 activity by IκBα: Evidence suggesting a common phylogeny between NF-κB and p53 transcription factors” (BMC Immunology, 2005).
